# Measurements: PMC2755859 (The Journal of Biological Chemistry, 2009)
# Target: pICln (UniProt P54105 1-237)
# Test: pull-down
binder,measurement,value
GST-PRMT5reg (domain or fragment) MAAMAVGGAGGSRVSSGRDLNCVPEIADTLGAVAKQGFDFLCMPVFHPRFKREFIQEPAKNRPGPQTRSDLLLSGRDWNTLIVGKLSPWIRPDSKVEKIRRNSEAAMLQELNFGAYLGLPAFLLPLNQEDNTNLARVLTNHIHTGHHSSMFWMRVPLVAPEDLRDDIIENAPTTHTEEYSGEEKTWMWWHNFRTLCDYSKRIAVALEIGADLPSNHVIDRWLGEPIKAAILPTSIFLTNKKGFPVLSKMHQRLIFRLLKLEVQFIITGTNHHSEKEFCSYLQYLEYLSQN,binding result,binds
